Data: publication PMC11242946 (Molecules, 2024)

Target: T1, human ACE2 protein (human, UniProt Q9BYF1 18-740)
T1 construct: No catalogue number is printed; also called angiotensin-converting enzyme-2
Assay: adsorption isotherm on protein-coupled resin (depletion, micro-BCA)
Settings: both partners purified

T1 sequence (Q9BYF1 18-740): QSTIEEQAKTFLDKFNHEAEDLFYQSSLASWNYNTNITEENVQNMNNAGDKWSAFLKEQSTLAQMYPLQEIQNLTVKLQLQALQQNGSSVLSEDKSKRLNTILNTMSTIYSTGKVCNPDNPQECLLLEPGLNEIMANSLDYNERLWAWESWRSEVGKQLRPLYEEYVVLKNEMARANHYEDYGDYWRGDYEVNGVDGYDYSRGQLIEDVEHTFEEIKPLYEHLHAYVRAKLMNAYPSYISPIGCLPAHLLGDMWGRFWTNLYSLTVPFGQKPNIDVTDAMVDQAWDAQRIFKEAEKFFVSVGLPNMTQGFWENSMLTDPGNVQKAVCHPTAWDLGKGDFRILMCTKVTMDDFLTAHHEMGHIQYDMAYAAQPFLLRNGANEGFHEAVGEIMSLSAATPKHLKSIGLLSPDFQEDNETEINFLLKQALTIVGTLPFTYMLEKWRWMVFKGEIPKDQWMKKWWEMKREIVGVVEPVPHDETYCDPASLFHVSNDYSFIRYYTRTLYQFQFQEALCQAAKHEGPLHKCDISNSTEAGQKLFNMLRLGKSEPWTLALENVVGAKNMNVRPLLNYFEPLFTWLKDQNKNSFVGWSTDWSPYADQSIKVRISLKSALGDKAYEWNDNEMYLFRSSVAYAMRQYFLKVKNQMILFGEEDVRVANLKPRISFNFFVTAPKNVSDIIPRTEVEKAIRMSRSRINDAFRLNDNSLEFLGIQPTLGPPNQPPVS

B1: functional peptide KYPAY (K5) (peptide)
peptide: KYPAY
Kd: 12.5 µM
